B1: CPEB3 Ribozyme (parent)
chain: GGGGGCCACAGCAGAAGCGUUCACGUCGCGGCCCCUGUCAGAUUCUGGUGAAUCUGCGAAUUCUGCUGU

Variants of: B1
Experiment: self-cleavage, relative activity (ratio to wild type); higher = more cleavage; co-transcriptional
Variant U36G G48C has a self-cleavage of 0.266. Variant G37A A51U has a self-cleavage of 0.285. Work on G37A A40U yielded a self-cleavage of 0.244. G37A A40C showed a self-cleavage of 0.261. Work on G37A A40G yielded a self-cleavage of 0.334. Work on U36A G47U yielded a self-cleavage of 0.321. U36A G47A showed a self-cleavage of 0.295. Work on U36A G47C yielded a self-cleavage of 0.269. For G37A U49G, the self-cleavage was 0.37. U36A G68A gave a self-cleavage of 0.317. U36A G68C gave a self-cleavage of 0.227. In the case of U36G U53C, the self-cleavage is reported as 0.267. Work on U36A G58C yielded a self-cleavage of 0.226. In the case of U36A G58U, the self-cleavage is reported as 0.253. With U36C G68A the self-cleavage was 0.932. Variant U36C G68C has a self-cleavage of 0.991. G37A C45G gave a self-cleavage of 0.281. With G37A C45U the self-cleavage was 0.351. Variant U36G U44G has a self-cleavage of 0.219. Work on U36G U44A yielded a self-cleavage of 0.246. With G37A U43A the self-cleavage was 0.261. G37A U43C gave a self-cleavage of 0.261. Variant G37A U43G has a self-cleavage of 0.359. G37A C54A gave a self-cleavage of 0.235. With G37A C54U the self-cleavage was 0.417. Work on U36G G41U yielded a self-cleavage of 0.373. In the case of U36G G41A, the self-cleavage is reported as 0.144. With U36G G41C the self-cleavage was 0.278. U36C C63G gave a self-cleavage of 0.548. With U36C C63A the self-cleavage was 0.587. Variant G37A G65A has a self-cleavage of 0.252. Work on G37A G65U yielded a self-cleavage of 0.325. For G37A G65C, the self-cleavage was 0.258. U36C A59C showed a self-cleavage of 0.42. Work on U36C A59G yielded a self-cleavage of 0.962. Variant U36C A59U has a self-cleavage of 0.448. U36G G56U gave a self-cleavage of 0.19. Work on U36G G56A yielded a self-cleavage of 0.246. G37A G50U gave a self-cleavage of 0.28. Variant G37A G50C has a self-cleavage of 0.215. For G37C C66A, the self-cleavage was 0.222. In the case of G37C C66U, the self-cleavage is reported as 0.246. Variant G37C C66G has a self-cleavage of 0.177. With G37C A59C the self-cleavage was 0.183. In the case of G37C A59G, the self-cleavage is reported as 0.234. U36G G50U gave a self-cleavage of 0.306. In the case of U36A U55G, the self-cleavage is reported as 0.289. U36A U55A showed a self-cleavage of 0.209. For U36A U55C, the self-cleavage was 0.181. G37A U44C gave a self-cleavage of 0.326. Variant G37A U44G has a self-cleavage of 0.223. With U36C A52U the self-cleavage was 0.915. U36C A52C gave a self-cleavage of 0.997. U36G U43G gave a self-cleavage of 0.231. Work on U36G U43A yielded a self-cleavage of 0.26. With U36G U43C the self-cleavage was 0.268. In the case of U36G A59C, the self-cleavage is reported as 0.182. U36G A59U gave a self-cleavage of 0.189. With U36G A59G the self-cleavage was 0.238. G37A A52G gave a self-cleavage of 0.268. Variant G37A A52U has a self-cleavage of 0.273. U36G C39G gave a self-cleavage of 0.24. U36G C39U showed a self-cleavage of 0.218. U36G C39A gave a self-cleavage of 0.204. G37A U69C gave a self-cleavage of 0.498. For G37A A59C, the self-cleavage was 0.213. G37A A59G showed a self-cleavage of 0.36. G37A U55C showed a self-cleavage of 0.216. Variant G37A U55A has a self-cleavage of 0.275. U36C U67G gave a self-cleavage of 0.949. For U36C U61C, the self-cleavage was 0.524. In the case of U36C U61A, the self-cleavage is reported as 0.557. Variant U36A G50C has a self-cleavage of 0.249. Variant U36A G50A has a self-cleavage of 0.213. U36A U44C showed a self-cleavage of 0.295. In the case of U36G U49C, the self-cleavage is reported as 0.146. U36C G41C gave a self-cleavage of 0.552. In the case of U36C G41U, the self-cleavage is reported as 0.664. U36C G41A gave a self-cleavage of 0.507. In the case of G37A G41A, the self-cleavage is reported as 0.231. Variant G37A G41C has a self-cleavage of 0.192. G37C G50A showed a self-cleavage of 0.257. G37C G50C gave a self-cleavage of 0.265. For G37C G50U, the self-cleavage was 0.188. With G37C G68C the self-cleavage was 0.245. Work on G37C G68A yielded a self-cleavage of 0.304. G37C G68U showed a self-cleavage of 0.245. U36A G48C gave a self-cleavage of 0.291. U36A G48U gave a self-cleavage of 0.311. In the case of U36A C45A, the self-cleavage is reported as 0.158. With U36A C45G the self-cleavage was 0.282. Variant U36G U61A has a self-cleavage of 0.341. Work on U36G A60U yielded a self-cleavage of 0.181. With U36A U62A the self-cleavage was 0.218. For U36A U62G, the self-cleavage was 0.249. In the case of U36C A60U, the self-cleavage is reported as 0.376. For U36C A60G, the self-cleavage was 0.636. U36C A60C gave a self-cleavage of 0.268. With G37C U44C the self-cleavage was 0.187. With U36C C57G the self-cleavage was 0.3. Work on U36C C57A yielded a self-cleavage of 0.251. With U36G A42G the self-cleavage was 0.225. G37A C66U gave a self-cleavage of 0.263. Work on U36A U43G yielded a self-cleavage of 0.214. Work on U36A U43A yielded a self-cleavage of 0.249. U36A A40G showed a self-cleavage of 0.248. In the case of U36A A40C, the self-cleavage is reported as 0.223. With G37C A42U the self-cleavage was 0.234. In the case of U36C U38G, the self-cleavage is reported as 0.244. For G37A U67A, the self-cleavage was 0.389. For G37C U38C, the self-cleavage was 0.201. In the case of G37C U38A, the self-cleavage is reported as 0.246. Work on U36G G37A yielded a self-cleavage of 0.198. In the case of U36G G37U, the self-cleavage is reported as 0.199. In the case of U36G G37C, the self-cleavage is reported as 0.22. With U36C U49C the self-cleavage was 0.863. With U36C U49A the self-cleavage was 0.923. U36C U49G gave a self-cleavage of 0.848. Work on U36A U67A yielded a self-cleavage of 0.246. In the case of U36A U67G, the self-cleavage is reported as 0.181. U36A U67C showed a self-cleavage of 0.215. In the case of G37A C57G, the self-cleavage is reported as 0.241. For G37A C57A, the self-cleavage was 0.217. Variant G37A C57U has a self-cleavage of 0.247. Variant U36A A59C has a self-cleavage of 0.157. In the case of U36A A59G, the self-cleavage is reported as 0.263. U36C G65C showed a self-cleavage of 0.414. With U36C G65A the self-cleavage was 0.67. Variant U36A U64A has a self-cleavage of 0.232. U36A U64G showed a self-cleavage of 0.202. G37A C63A gave a self-cleavage of 0.228. G37A C63U showed a self-cleavage of 0.364. For U36A U46A, the self-cleavage was 0.164. U36A U46G gave a self-cleavage of 0.255. In the case of G37A A42C, the self-cleavage is reported as 0.293. Work on G37A A42U yielded a self-cleavage of 0.275. In the case of G37C G41U, the self-cleavage is reported as 0.201. In the case of G37C C54U, the self-cleavage is reported as 0.25. In the case of G37C C54A, the self-cleavage is reported as 0.201. For U36A A42U, the self-cleavage was 0.242. Variant U36A A42C has a self-cleavage of 0.191. For G37A C39A, the self-cleavage was 0.236. For G37A C39U, the self-cleavage was 0.372. In the case of U36G C66A, the self-cleavage is reported as 0.232. U36G C66U showed a self-cleavage of 0.22. U36G C66G gave a self-cleavage of 0.167. For U36C U62G, the self-cleavage was 0.581. U36C U62A showed a self-cleavage of 0.654. For U36A U49A, the self-cleavage was 0.263. Variant U36A U49G has a self-cleavage of 0.225. For G37A U62A, the self-cleavage was 0.225. In the case of G37A U62C, the self-cleavage is reported as 0.321. For G37A, the self-cleavage was 0.32. G37C showed a self-cleavage of 0.241. In the case of C35U U61G, the self-cleavage is reported as 0.854. Variant C35U U61A has a self-cleavage of 0.596. With U36A A51C the self-cleavage was 0.242. For U36A A51U, the self-cleavage was 0.306. G37C G56A showed a self-cleavage of 0.205. G37C G56U showed a self-cleavage of 0.237. For G37A U38G, the self-cleavage was 0.251. In the case of G37A U38C, the self-cleavage is reported as 0.34. With G37A U38A the self-cleavage was 0.291. For U36G G58C, the self-cleavage was 0.277. With U36G G58A the self-cleavage was 0.24. In the case of U36G G47A, the self-cleavage is reported as 0.252. With U36G G47C the self-cleavage was 0.293.
